Measurements as given in paper PMC3708871.

T1: Recombinant SIVmac239 Nef core domain, residues 96–237
T1 chain: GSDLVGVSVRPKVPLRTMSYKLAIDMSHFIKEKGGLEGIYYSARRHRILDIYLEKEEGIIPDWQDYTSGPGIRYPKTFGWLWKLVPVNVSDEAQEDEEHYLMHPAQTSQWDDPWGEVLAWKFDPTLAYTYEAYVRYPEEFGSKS


Experiments:
[1] = target: SIVmac239 Nef, wild type; test: co-immunoprecipitation; conditions: IP: α-BST2; parent: 0.13
[2] = target: Peptide of the cytoplasmic domain of rhesus macaque tetherin, residues 1–26, biotinylated (rhesus macaque); test: SPR; BIAcore 3000, 25°C, PBS with 5 mM DTT; biotinylated tetherin peptides captured (3,000 RU) on neutravidin-coated CM5 chip, Nef proteins flowed at 5 µl/min; equilibrium analysis, apparent Kd
[3] = target: Rhesus macaque tetherin (BST-2), allele rBST-2.1 (rhesus macaque); test: co-IP; 293T co-transfected with Nef and tetherin constructs; lysates immunoprecipitated with anti-tetherin mAb 3H4 and protein A beads, blots for Nef and tetherin; band densities by ImageJ
[4] = target: Dynamin 2 fused to GFP (UniProt P50570); test: co-IP; 293T co-transfected with Nef constructs and Dyn2-GFP; lysates immunoprecipitated with a mAb to GFP, blots for Nef and GFP; band ratios
Chain of UniProt P50570 (P50570 whole entry, the tested form may be a part): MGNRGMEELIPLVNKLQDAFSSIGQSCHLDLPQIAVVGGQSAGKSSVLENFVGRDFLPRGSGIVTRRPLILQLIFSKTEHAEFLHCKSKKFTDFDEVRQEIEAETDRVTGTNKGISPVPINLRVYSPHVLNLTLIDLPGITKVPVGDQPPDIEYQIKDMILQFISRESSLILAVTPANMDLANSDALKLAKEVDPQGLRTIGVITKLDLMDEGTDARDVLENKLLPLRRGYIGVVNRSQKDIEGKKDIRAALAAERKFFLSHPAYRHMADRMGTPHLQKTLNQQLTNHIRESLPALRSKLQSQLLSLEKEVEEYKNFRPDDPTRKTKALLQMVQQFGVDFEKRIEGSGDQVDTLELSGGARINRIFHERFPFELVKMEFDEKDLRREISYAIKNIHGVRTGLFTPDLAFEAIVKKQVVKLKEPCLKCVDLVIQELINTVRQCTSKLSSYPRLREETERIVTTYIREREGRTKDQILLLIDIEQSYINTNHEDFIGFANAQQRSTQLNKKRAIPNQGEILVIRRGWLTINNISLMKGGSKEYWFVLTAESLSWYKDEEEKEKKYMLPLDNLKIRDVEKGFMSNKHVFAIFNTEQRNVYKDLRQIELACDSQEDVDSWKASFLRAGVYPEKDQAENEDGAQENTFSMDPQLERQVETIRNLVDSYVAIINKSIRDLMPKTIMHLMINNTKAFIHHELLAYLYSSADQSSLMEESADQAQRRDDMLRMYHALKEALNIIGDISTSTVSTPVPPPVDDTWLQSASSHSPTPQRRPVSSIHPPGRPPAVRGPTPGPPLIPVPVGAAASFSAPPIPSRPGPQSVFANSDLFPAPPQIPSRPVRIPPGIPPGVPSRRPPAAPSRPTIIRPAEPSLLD

[5] = target: Rhesus macaque tetherin (BST-2), allele rBST-2.1; test: co-immunoprecipitation; conditions: 293T cells co-transfected; lysates immunoprecipitated with a monoclonal antibody to tetherin; parent: 1
[6] = target: T1, Recombinant SIVmac239 Nef core domain, …; test: SPR; conditions: chain shown with the change, Nef96–237 at about 650 µM (highest concentration point), peptide on chip, read off a plot

Molecule | BST2 binding (Nef/tetherin band intensity in IP) [3] | further results
Human tetherin (BST-2) (from UniProt Q10589) insertion of D14DIWK18 from rhesus tetherin into human tetherin (hDDIWK) |  | other: Nef/BST2 band intensity ratio [1]: 0.65
Recombinant SIVmac239 Nef core domain, residues 96–237 (domain or fragment) |  | Kd [2]: 401 µM
SIVmac239 Nef G2A (myristoylation site mutant) (natural protein) | 0.16 | 
SIVmac239 Nef with pair-wise alanine substitutions at positions 5–6 (natural protein) | 0.18 | 
SIVmac239 Nef with pair-wise alanine substitutions at positions 60–61 (natural protein) | 0.7 | 
SIVmac239 Nef with pair-wise alanine substitutions at positions 64–65 (natural protein) | 0.54 | 
SIVmac239 Nef with pair-wise alanine substitutions at positions 66–67 (natural protein) | 0.18 | 
SIVmac239 Nef with pair-wise alanine substitutions at positions 68–69 (natural protein) | 0.14 | 
SIVmac239 Nef with pair-wise alanine substitutions at positions 70–71 (natural protein) | 0.28 | 
SIVmac239 Nef with pair-wise alanine substitutions at positions 74–75 (natural protein) | 0.71 | 
SIVmac239 Nef with pair-wise alanine substitutions at positions 82–83 (natural protein) | 1.38 | 
SIVmac239 Nef with pair-wise alanine substitutions at positions 86–87 (natural protein) | 0.47 | 
SIVmac239 Nef with pair-wise alanine substitutions at positions 88–89 (natural protein) | 0.93 | 
SIVmac239 Nef with pair-wise alanine substitutions at positions 106–107 (natural protein) | 0.82 | 
SIVmac239 Nef with pair-wise alanine substitutions at positions 108–109 (natural protein) | 1.87 | 
SIVmac239 Nef with pair-wise alanine substitutions at positions 110–111 (natural protein) | 1.29 | 
SIVmac239 Nef with pair-wise alanine substitutions at positions 112–113 (natural protein) | 0.35 | 
SIVmac239 Nef with pair-wise alanine substitutions at positions 116–117 (natural protein) | 0.16 | 
SIVmac239 Nef with pair-wise alanine substitutions at positions 128–129 (natural protein) | 1.11 | 
SIVmac239 Nef with pair-wise alanine substitutions at positions 130–131 (natural protein) | 2.4 | 
SIVmac239 Nef with pair-wise alanine substitutions at positions 132–133 (natural protein) | 0.79 | 
SIVmac239 Nef with pair-wise alanine substitutions at positions 134–135 (natural protein) | 2.58 | 
SIVmac239 Nef with pair-wise alanine substitutions at positions 138–139 (natural protein) | 0.84 | 
SIVmac239 Nef with pair-wise alanine substitutions at positions 140–141 (natural protein) | 1.38 | 
SIVmac239 Nef with pair-wise alanine substitutions at positions 142–143 (natural protein) | 5.1 | 

Molecule | BST2 binding (Nef/tetherin band intensity in IP) [3] | further results
SIVmac239 Nef with pair-wise alanine substitutions at positions 146–147 (natural protein) | 1.56 | 
SIVmac239 Nef with pair-wise alanine substitutions at positions 152–153 (natural protein) | 1.68 | 
SIVmac239 Nef with pair-wise alanine substitutions at positions 156–157 (natural protein) | 1.46 | 
SIVmac239 Nef with pair-wise alanine substitutions at positions 158–159 (natural protein) | 0.76 | 
SIVmac239 Nef with pair-wise alanine substitutions at positions 160–161 (natural protein) | 1.64 | 
SIVmac239 Nef with pair-wise alanine substitutions at positions 164–165 (natural protein) | 1.34 | 
SIVmac239 Nef with pair-wise alanine substitutions at positions 166–167 (natural protein) | 1.4 | 
SIVmac239 Nef with pair-wise alanine substitutions at positions 168–169 (natural protein) | 2.1 | 
SIVmac239 Nef with pair-wise alanine substitutions at positions 170–171 (natural protein) | 2.61 | 
SIVmac239 Nef with pair-wise alanine substitutions at positions 172–173 (natural protein) | 1.34 | 
SIVmac239 Nef with pair-wise alanine substitutions at positions 174–175 (natural protein) | 0.52 | 
SIVmac239 Nef with pair-wise alanine substitutions at positions 176–177 (natural protein) | 3.17 | 
SIVmac239 Nef with pair-wise alanine substitutions at positions 181–182 (natural protein) | 0.23 | 
SIVmac239 Nef with pair-wise alanine substitutions at positions 193–194 (natural protein) | 0.22 | 
SIVmac239 Nef with pair-wise alanine substitutions at positions 195–196 (natural protein) | 0.31 | 
SIVmac239 Nef with pair-wise alanine substitutions at positions 199–200 (natural protein) | 0.43 | 
SIVmac239 Nef with pair-wise alanine substitutions at positions 203–204 (natural protein) | 0.74 | 
SIVmac239 Nef with pair-wise alanine substitutions at positions 205–206 (natural protein) | 0.94 | 
SIVmac239 Nef with pair-wise alanine substitutions at positions 209–210 (natural protein) | 1.4 | 
SIVmac239 Nef, wild type (natural protein) | 1 | Dyn2 binding (Nef/dynamin 2 band intensity in IP) [4]: 1.1
SIVmac239 Nef, wild type M66A; N67A; T68A; P69A; W70A; R71A |  | ratio to parent [5]: 0.05
SIVmac239 Nef, wild type M66A; N67A; T68A; P69A; W70A; R71A; I117A; L174A; W175A; N181A; V182A |  | ratio to parent [5]: 0.07
MASTSYDYSRVPMDDIWKEDGDKRCK |  | response [6]: 800 RU
MAPILYDYRKMPMAAAAAEDGDKRCK |  | response ([6]; parent: est. 1900): 1100 RU
